The text below walks through data of publication PMC8629194 (bioRxiv, 2021).

In the assay the target is wt ACE2_(615)-Fc (M27) (human, UniProt Q9BYF1 18-615). As to the kind of experiment: SPR. (SPR reads the build-up and loss of mass on a sensor chip optically.)
Sequence of wt ACE2_(615)-Fc (M27) (Q9BYF1 18-615): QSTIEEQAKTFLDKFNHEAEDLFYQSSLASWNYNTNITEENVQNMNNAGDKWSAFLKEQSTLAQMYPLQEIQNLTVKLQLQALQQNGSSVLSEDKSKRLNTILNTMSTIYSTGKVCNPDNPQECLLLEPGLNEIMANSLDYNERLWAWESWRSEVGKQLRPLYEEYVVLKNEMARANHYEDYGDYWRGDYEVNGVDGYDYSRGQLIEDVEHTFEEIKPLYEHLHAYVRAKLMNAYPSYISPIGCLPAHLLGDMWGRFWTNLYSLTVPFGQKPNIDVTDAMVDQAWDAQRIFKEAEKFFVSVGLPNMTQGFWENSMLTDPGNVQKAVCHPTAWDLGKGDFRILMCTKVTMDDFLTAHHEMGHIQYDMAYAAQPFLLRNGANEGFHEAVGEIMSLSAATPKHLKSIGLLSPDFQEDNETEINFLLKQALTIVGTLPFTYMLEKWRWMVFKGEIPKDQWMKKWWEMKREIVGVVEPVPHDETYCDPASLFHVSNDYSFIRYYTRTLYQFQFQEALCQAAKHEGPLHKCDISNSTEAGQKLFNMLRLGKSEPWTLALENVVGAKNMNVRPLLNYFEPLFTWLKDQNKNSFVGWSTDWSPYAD

B1: SARS-CoV RBD (residue 306–577) (domain or fragment)
chain: not shown
In the case of B1, the “fold, affinity of RBDwt for M27 over that of SARS-CoV-1 RBD” value was roughly 5 fold.
